The target in experiment [1] is T1, CHD4 PHD1 (aa 362–417) (human, UniProt Q14839 362-417).
T1 construct: CHD4, human, first PHD finger, aa 362-417; Cloned into pGex6p1; also called first PHD finger of CHD4; source: E. coli BL21 DE3 pLysS, purified (glutathione Sepharose 4B, GST cleaved with Prescission protease)
The experiment in a line: other fluorescence titration; intrinsic tryptophan fluorescence; H3 (1-12) peptide added to 0.5-1 uM CHD4 PHD construct; 25 °C, pH 7.5, 75 mM NaCl, 3 mM DTT; apparent. To be noted: both partners purified.

In experiment [2] the target is T2, CHD4 PHD2 (443–498) (human, UniProt Q14839 443-498).
T2 construct: CHD4, human, second PHD finger, aa 443-498; Cloned into pGex6p1; also called second PHD finger of CHD4; source: E. coli BL21 DE3 pLysS, purified (glutathione Sepharose 4B, GST cleaved with Prescission protease)
The description is as above. The conditions noted are these: both partners purified.

T1 sequence (Q14839 362-417): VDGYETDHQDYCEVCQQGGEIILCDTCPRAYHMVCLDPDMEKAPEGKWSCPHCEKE
T2 sequence (Q14839 443-498): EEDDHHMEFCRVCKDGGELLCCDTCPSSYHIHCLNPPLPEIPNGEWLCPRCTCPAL

B1: histone H3 peptide (aa 1–12) (peptide, UniProt P68431 2-13, looked up)
peptide: ARTKQTARKSTG
notes: histone H3, aa 1-12, unmodified; also called H3 (1–12) peptide; histone peptide; source: synthetic peptide (University of Colorado Denver Peptide Core Facility)
As to B1, the Kd in experiment [1] came to 4000 nM; in experiment [2], 430 nM.

The values are drawn from paper PMC5686127, “Accessibility of the histone H3 tail in the nucleosome for binding of paired readers” (Nature Communications, 2017).
